Measurements as given in patent publication US20090031456A1 (MICHIGAN STATE UNIVERSITY, published 2009).

Target: AtMIN7-HA (Arabidopsis thaliana, UniProt F4IXW2 1-1739)
Assay: transient co-expression in N. benthamiana leaves, pull-down and immunoblot

Chain of AtMIN7-HA (F4IXW2 other isoform, or with tags, fused parts or gaps limits assumed): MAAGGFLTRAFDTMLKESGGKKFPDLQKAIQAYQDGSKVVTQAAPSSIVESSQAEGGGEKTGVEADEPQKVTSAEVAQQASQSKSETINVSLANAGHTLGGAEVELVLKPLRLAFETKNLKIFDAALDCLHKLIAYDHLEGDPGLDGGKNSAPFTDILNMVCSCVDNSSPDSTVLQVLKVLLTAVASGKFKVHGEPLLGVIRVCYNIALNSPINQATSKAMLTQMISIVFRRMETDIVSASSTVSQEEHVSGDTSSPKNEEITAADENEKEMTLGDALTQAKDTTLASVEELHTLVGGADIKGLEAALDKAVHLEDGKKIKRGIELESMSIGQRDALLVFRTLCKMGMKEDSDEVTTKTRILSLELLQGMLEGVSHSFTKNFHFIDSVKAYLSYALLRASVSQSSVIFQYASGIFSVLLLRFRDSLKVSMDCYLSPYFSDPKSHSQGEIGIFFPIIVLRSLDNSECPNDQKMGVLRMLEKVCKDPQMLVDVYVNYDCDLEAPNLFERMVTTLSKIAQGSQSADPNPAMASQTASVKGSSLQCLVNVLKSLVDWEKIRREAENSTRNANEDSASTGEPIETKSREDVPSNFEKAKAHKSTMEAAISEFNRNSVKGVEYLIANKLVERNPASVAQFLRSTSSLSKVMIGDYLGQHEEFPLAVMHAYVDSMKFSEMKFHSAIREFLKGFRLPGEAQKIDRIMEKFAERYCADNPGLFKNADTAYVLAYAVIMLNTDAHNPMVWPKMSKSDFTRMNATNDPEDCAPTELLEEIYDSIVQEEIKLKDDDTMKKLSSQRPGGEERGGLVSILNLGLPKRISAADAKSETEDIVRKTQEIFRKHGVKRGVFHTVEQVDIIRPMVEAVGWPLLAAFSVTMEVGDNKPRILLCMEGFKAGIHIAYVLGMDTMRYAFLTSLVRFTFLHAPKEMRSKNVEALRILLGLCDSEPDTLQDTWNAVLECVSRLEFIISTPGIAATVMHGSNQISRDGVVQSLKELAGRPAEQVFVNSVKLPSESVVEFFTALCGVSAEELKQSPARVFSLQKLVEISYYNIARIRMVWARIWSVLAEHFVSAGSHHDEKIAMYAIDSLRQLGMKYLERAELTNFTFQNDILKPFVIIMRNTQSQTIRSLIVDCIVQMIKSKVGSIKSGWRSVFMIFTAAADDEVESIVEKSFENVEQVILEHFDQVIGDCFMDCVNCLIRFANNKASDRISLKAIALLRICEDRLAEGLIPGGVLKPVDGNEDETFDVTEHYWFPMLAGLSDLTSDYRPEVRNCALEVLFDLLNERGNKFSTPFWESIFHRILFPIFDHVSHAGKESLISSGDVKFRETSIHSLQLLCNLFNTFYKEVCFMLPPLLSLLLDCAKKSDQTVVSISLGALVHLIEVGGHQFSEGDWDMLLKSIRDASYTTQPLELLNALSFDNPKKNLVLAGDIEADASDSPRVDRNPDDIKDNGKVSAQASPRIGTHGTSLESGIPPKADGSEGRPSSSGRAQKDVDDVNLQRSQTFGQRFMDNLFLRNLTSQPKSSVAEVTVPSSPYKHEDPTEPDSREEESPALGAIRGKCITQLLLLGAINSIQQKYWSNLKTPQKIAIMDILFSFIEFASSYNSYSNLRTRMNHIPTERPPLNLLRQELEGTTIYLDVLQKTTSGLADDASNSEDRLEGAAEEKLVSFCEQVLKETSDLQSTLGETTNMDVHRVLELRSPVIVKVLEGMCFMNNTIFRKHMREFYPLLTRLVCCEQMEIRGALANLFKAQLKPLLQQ

B1: 6×His-HopM1 1-300 (other)
chain: MISSRIGGAGGVELSRVNQQHDTVPAQTAHPNAVTAGMNPPLTPDQSGSHATESSSAGAARLNVAARHTQLLQAFKAEHGTAPVSGAPMISSRAALLIGSLLQAEPLPFEVMAEKLSPERYQLKQFQGSDLQQRLEKFAQPGQIPDKAEVGQLIKGFAQSVADQLEHFQLMHDASPATVGQHAKADKATLAVSQTALGEYAGRASKAIGEGLSNSIASLDEHISALDLTLQDAEQGNKESLHADRQALVDAKTTLVGLHADFVKSPEAKRLASVAAHTQLDNVVSDLVTARNTVGGWKGA
notes: also called HopM1-300
B1: binds.
